# Measurements taken from the supplement of paper PMC9170038.
# System: MS2 coat protein
# Assay: apparent KD of MS2 coat protein; designed switch direction (-1 OFF switch, 1 ON switch): 1; higher = weaker reporter binding
# Outline: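 Normalised cluster fluorescence was curve-fitted, and each design's median over clusters is its apparent KD. Before this, SNAP-549-labelled MS2 coat protein was titrated from 0.7 or 1.5 nM, doubling to 3 µM, over RNA switches transcribed on Illumina chips by stalled E. coli RNA polymerase. Titrations had no input, 200 uM small-molecule ligand, or an oligonucleotide input, and steps lasted 0.8–1.5 h (lowest) to 10–20 min (highest).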
# [1] = input ligand: microRNA oligo, concentration not stated
# [2] = Eterna round: R95, input ligand: FMN 200 uM
# [3] = Eterna round: R95, input ligand: microRNA oligo, concentration not stated
# [4] = Eterna round: R95, input ligand: none
Sequence,apparent KD of MS2 coat protein (input ligand: FMN 200 uM) [µM],apparent KD of MS2 coat protein [1] [µM],apparent KD of MS2 coat protein (input ligand: none) [µM],apparent KD of MS2 coat protein [2] [µM],apparent KD of MS2 coat protein [3] [µM],apparent KD of MS2 coat protein [4] [µM]
"GUAGCAUACCGAGGAUAUUCAUAUAAUAAAUACAUGAGGAUCACCCAUGUAAGGCGAAAGCCUUGGGAGAAGGCGGAAUGCUAC [Xeonanis - 20 Mod59] (Eterna round: R96, puzzle: Same State NG 2)",0.0126,0.0319,0.0363,–,–,–
"CUGAGCGAUUAAGGAUAUCACGUCGAAUAGACGUGAGAAGGUGAUCAUAACAUGAGGAUCACCCAUGUAUUACAUGAAGCUCAG [SSNG1/3-A1] (Eterna round: R96, puzzle: Same State NG 1)",0.305,0.1,0.108,–,–,–
"GUUACAUGAGGAUCACCCAUGUAUGUGUGGGAGUAAGUGUCUUAGGAUAUCUAUGAUUUAAUUAAAGAGAAGGAAGAUUGUUGU [JMF's solution 83] (Eterna round: R96, puzzle: Same State NG 3)",0.154,0.085,0.103,–,–,–
GGAGCCGGCACUGAGGAUAUUCAUAUUAAAACAUGAGGAUCACCCAUGUGGGCCAGAAGGCCUUGGGAGAAGGCAGGUCGACUCG [Diqureveri - 3] (puzzle: Same State 2),–,–,–,0.0185,0.145,0.243
UCUUGGUUUUUGCUCGUUUUUUGUGUUGAACAUGAGGAUCACCCAUGUAUUGUACAAUCCAGUUUAAUAAUGGUCCA [Mod of one of JR's submissions 2] (puzzle: Sensor for hsa-mir-208a),–,–,–,0.055,0.051,0.0617
"GGUCGGUCCAACAUGAGGAUCACCCAUGUACCGGAAACGGCAUAGGAUAUCUGUCCGAAAAGGUCAGAGAAGGGUGAACCGACC [Fiskers NG3ss - 72] (Eterna round: R96, puzzle: Same State NG 3)",0.421,0.586,0.229,–,–,–
CAGUACUGUCGAGAGGAUAUGCGGUGAUGGACAUGAGGAUCACCCAUGUUAGCGACAGCAUCACGGCAGAAGGCUCUACUGCUGC [Soteed Omei mod 33] (puzzle: Same State 2),–,–,–,–,0.0394,–
"AGCACUUCAGAAGGAUAUGAGAUGCUAAGCAUCUUAGAAGGUCUGCCGUAAAGAAACGUCCACAUGAGGAUCACCCAUGUUGCA [Eternabot solution 28] (Eterna round: R96, puzzle: Same State NG 1)",0.0209,0.0219,0.026,–,–,–
"ACUUGCCGCACAGGAUAUGGGUGCCUGUACAUGAGGAUCACCCAUGUUAAGGGACGGAUUACGAACCAGAAGGGUGAGGCGGGC [Tigeti] (Eterna round: R96, puzzle: Same State NG 2)",0.124,0.418,0.75,–,–,–
"AGGAUGAGAACAGGAUAUUCGACAUGAGGAUCACCCAUGUGGCAAGUAGGUGACGAUGAAUGACGGAAGAAGGGUUACGAGGAG [Same State NG2] (Eterna round: R96, puzzle: Same State NG 2)",0.375,0.197,0.199,–,–,–
"CCCUCAUGCAGGCUAACACGCUUGUUUUAACAUGAGGAUCACCCAUGUACGUCGCCGUUUCGUGCGGGACGCGCAGA [Anuscear] (Eterna round: R96, puzzle: Sensor for hsa-mir-208a)",0.363,0.229,0.169,–,–,–
"GUCCAAAACACAGGAUAUCCCAGUCAUGAACUGGGAGAAGGGUGGCCACAUGAGGAUCACCCAUGUGAAGUGCGAGAGGCACGA [Arquarais] (Eterna round: R96, puzzle: Same State NG 1)",0.253,0.595,0.937,–,–,–
"UGUACCUGCACAGGAUAUCAUGCGAAAAUUGCGUGAGAAGGGUGAAUACUGUCUUUCUAAGAGUACAUGAGGAUCACCCAUGUA [SameState NG1 #61] (Eterna round: R96, puzzle: Same State NG 1)",0.156,0.0918,0.119,–,–,–
"UUGCUCGUGUGAGGAUAUGCAGCCGUUUCGGCUGCAGAAGGUACUAUAAUACAUGAGGAUCACCCAUGUCUCUAUUAUUUAGUG [salish99_SSNG1_r04_926] (Eterna round: R96, puzzle: Same State NG 1)",0.0195,0.0192,0.0287,–,–,–
"GCCGCAAGGGCAGGAUAUGGGUCCAGAGUGCAAAUACACUCUGGUACAUGAGGAUCACCCAUGUCCCAGAAGGGCCCAAGCGGC [Teerledion] (Eterna round: R96, puzzle: Same State NG 2)",0.0139,0.071,0.127,–,–,–
AAACUACAUGAGGAUCACCCAUGUGAAAACCGCAUAGGAUAUCCGCAGCAAUGAGCUGACGGAGAAGGGUGACCGG [Riater] (puzzle: Same State 1),–,–,–,0.175,0.103,0.276
"CUGAGCGAUCAAGGAUAUCACGUCGUUUAGACGUGAGAAGGUGAUCAUAACAUGAGGAUCACCCAUGUAUUACAUGAAGCUCAG [SSNG1/2-A3] (Eterna round: R96, puzzle: Same State NG 1)",0.208,0.462,1.24,–,–,–
"GCUCGGACGAUGACCCACAUGAGGAUCACCCAUGUGCGUGGGCAGGAUAUCUAGAUUAAGGAUGUAGAGAAGGGUCGACCGAGC [SameState NG3 #30] (Eterna round: R96, puzzle: Same State NG 3)",0.415,0.0584,0.386,–,–,–
CUGCUACAUGAGGAUCACCCAUGUUGGAGUGAUGCAGGAUAUGUGGGACCAGAAGAUGAAACAGAAGGGCAAGGAG [JR_SS!_Sub006] (puzzle: Same State 1),–,–,–,0.11,0.0957,0.152
"AGAAGACAUGAGGAUCACCCAUGUACAUAAUGAGGAGAAUGGGAGGAUAUGUAGAGAGAGAGGGAGCAGAAGGUCCAGUAUGAA [Default title] (Eterna round: R96, puzzle: Same State NG 3)",0.0989,0.0992,0.148,–,–,–
UGGAUCUAGGCUUGCCUGGGUCCAUGCUGACAUGAGGAUCACCCAUGUGCAUCCUACAAGCUUUUUGCUUGUCUGCC (puzzle: Sensor for hsa-mir-208a),–,–,–,0.146,0.122,0.0937
AGGUGGUGUGGAAAGGAUAUACUGUUGAGGACAUGAGGAUCACCCAUGUGGUAGAGGACGUAAGGGUAGAAGGUUCGGGAUUGGU [JR_SS@_Sub021] (puzzle: Same State 2),–,–,–,0.0462,0.0502,0.0754
"GAGGGCGAAAGCGACAUGAGGAUCACCCAUGUCCUCGGAGGGCAGGAUAUCCGGCAAAAGCCGAAGGAGAAGGGUCGAAAAGAA [AK SSNG3-V2-38.1] (Eterna round: R96, puzzle: Same State NG 3)",0.0664,0.026,0.0411,–,–,–
